What is called stoichiometry N is a count of units in the complex or per binding partner.

The values below come from PMC4250520, “Calcium-induced conformational changes of the regulatory domain of human mitochondrial aspartate/glutamate carriers” (Nature Communications, 2014).

Series [1] deals with the molecule itself. The series is described as follows: SEC-MALLS; Superdex 200 10/300 GL; 20 mM Hepes pH 7.5, 150 mM NaCl, 5 mM CaCl2; two-detector method.
Series [2] concerns the molecule itself. The series is described as follows: SEC-MALLS; Superose 6 10/300 GL; 20 mM Hepes pH 8.0, 150 mM NaCl, 0.002% (w/v) LMNG, 0.004 mg/ml TOCL; protein-conjugate (three-detector) method.
The target of series [3] is T1, N-terminal domain of citrin (human, UniProt Q9UJS0 2-319).
T1 construct: human citrin N-terminal domain, residues 2-319; In the crystal structure it is joined to the C-terminal domain on one chain; The N-terminal domain of citrin could not be expressed on its own; also called EF-hands 1-8; source: Lactococcus lactis NZ9000, as part of the purified fusion; set free by cleavage with MBP-TEV
T1 sequence (looked up): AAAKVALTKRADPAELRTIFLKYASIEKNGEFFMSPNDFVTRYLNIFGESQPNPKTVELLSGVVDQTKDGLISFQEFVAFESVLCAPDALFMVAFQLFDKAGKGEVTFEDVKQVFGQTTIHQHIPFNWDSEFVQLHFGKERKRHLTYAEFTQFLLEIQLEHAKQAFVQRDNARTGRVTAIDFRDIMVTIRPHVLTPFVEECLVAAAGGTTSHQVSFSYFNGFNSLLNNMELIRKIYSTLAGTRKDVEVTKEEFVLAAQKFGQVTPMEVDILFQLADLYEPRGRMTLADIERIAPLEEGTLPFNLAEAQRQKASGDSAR
The series is described as follows: SEC; fusion cleaved with MBP-TEV overnight, then Superose 12 10/30 HR; 20 mM Hepes pH 7.5, 150 mM NaCl, 10 mM EGTA (sample E, supplemented with 10 mM EGTA and 10 mM EDTA); peak fractions on Tris-tricine gels. The settings on record: both partners purified. In general terms: Size exclusion chromatography separates by hydrodynamic size, large species first.

B1: N- and C-terminal domain fusion of citrin (domain or fragment, human)
chain: AAAKVALTKRADPAELRTIFLKYASIEKNGEFFMSPNDFVTRYLNIFGESQPNPKTVELLSGVVDQTKDGLISFQEFVAFESVLCAPDALFMVAFQLFDKAGKGEVTFEDVKQVFGQTTIHQHIPFNWDSEFVQLHFGKERKRHLTYAEFTQFLLEIQLEHAKQAFVQRDNARTGRVTAIDFRDIMVTIRPHVLTPFVEECLVAAAGGTTSHQVSFSYFNGFNSLLNNMELIRKIYSTLAGTRKDVEVTKEEFVLAAQKFGQVTPMEVDILFQLADLYEPRGRMTLADIERIAPLEEGTLPFNLAEAQRQKASGDSARENLYFQGGVKPMGSEPVPKSRINLPAPNPDHVGGYKLAVATFAGIENKFGLYLPLFKPSVSTSKAIGGGP
notes: human citrin N-terminal domain, residues 2-319; TEV protease cleavage site that links the two domains in place of the carrier domain; human citrin C-terminal domain, residues 613-675; A Factor-Xa cleavage site follows the octa-histidine tag; no tag removal step is described in the purification of this fusion; also called citrin N- and C-terminal fusion protein; regulatory domain of citrin; …
For B1, the “stoichiometry N” value in series [1] was found to be 2.

B2: citrin (mitochondrial aspartate/glutamate carrier isoform 2), full-length (natural protein, human, UniProt Q9UJS0 1-675, looked up)
chain: MAAAKVALTKRADPAELRTIFLKYASIEKNGEFFMSPNDFVTRYLNIFGESQPNPKTVELLSGVVDQTKDGLISFQEFVAFESVLCAPDALFMVAFQLFDKAGKGEVTFEDVKQVFGQTTIHQHIPFNWDSEFVQLHFGKERKRHLTYAEFTQFLLEIQLEHAKQAFVQRDNARTGRVTAIDFRDIMVTIRPHVLTPFVEECLVAAAGGTTSHQVSFSYFNGFNSLLNNMELIRKIYSTLAGTRKDVEVTKEEFVLAAQKFGQVTPMEVDILFQLADLYEPRGRMTLADIERIAPLEEGTLPFNLAEAQRQKASGDSARPVLLQVAESAYRFGLGSVAGAVGATAVYPIDLVKTRMQNQRSTGSFVGELMYKNSFDCFKKVLRYEGFFGLYRGLLPQLLGVAPEKAIKLTVNDFVRDKFMHKDGSVPLAAEILAGGCAGGSQVIFTNPLEIVKIRLQVAGEITTGPRVSALSVVRDLGFFGIYKGAKACFLRDIPFSAIYFPCYAHVKASFANEDGQVSPGSLLLAGAIAGMPAASLVTPADVIKTRLQVAARAGQTTYSGVIDCFRKILREEGPKALWKGAGARVFRSSPQFGVTLLTYELLQRWFYIDFGGVKPMGSEPVPKSRINLPAPNPDHVGGYKLAVATFAGIENKFGLYLPLFKPSVSTSKAIGGGP
notes: also called SLC25A13; AGC2; source: purified in lauryl maltose neopentyl glycol
Regarding B2, in series [2], the “stoichiometry N” value amounted to 2.

B3: N-terminal domain of aralar (domain or fragment, human, UniProt O75746 2-311, looked up)
chain: AVKVQTTKRGDPHELRNIFLQYASTEVDGERYMTPEDFVQRYLGLYNDPNSNPKIVQLLAGVADQTKDGLISYQEFLAFESVLCAPDSMFIVAFQLFDKSGNGEVTFENVKEIFGQTIIHHHIPFNWDCEFIRLHFGHNRKKHLNYTEFTQFLQELQLEHARQAFALKDKSKSGMISGLDFSDIMVTIRSHMLTPFVEENLVSAAGGSISHQVSFSYFNAFNSLLNNMELVRKIYSTLAGTRKDVEVTKEEFAQSAIRYGQVTPLEIDILYQLADLYNASGRLTLADIERIAPLAEGALPYNLAELQRQQ
notes: human aralar N-terminal domain, residues 2-311; Tag removed with Factor Xa; also called aralar N-terminal domain; regulatory domain of aralar; source: Lactococcus lactis NZ9000, purified (Nickel Sepharose, Factor Xa, SEC); not shown: His8, N-terminal, cleaved
Consider B3, for which, in series [1], the “stoichiometry N” value turned out to be 2.

B4: C-terminal domain of citrin (domain or fragment, human, UniProt Q9UJS0 613-675, looked up)
chain: GVKPMGSEPVPKSRINLPAPNPDHVGGYKLAVATFAGIENKFGLYLPLFKPSVSTSKAIGGGP
notes: human citrin C-terminal domain, residues 613-675; residues 632-658 are seen in the structure; In the crystal structure it is joined to the N-terminal domain on one chain; also called C-terminal helix; source: Lactococcus lactis NZ9000, as part of the purified fusion; set free by cleavage with MBP-TEV
With B4, in series [3], the binding result is given as “binds”.

B5: N- and C-terminal domain fusion of aralar (domain or fragment, human)
chain: AVKVQTTKRGDPHELRNIFLQYASTEVDGERYMTPEDFVQRYLGLYNDPNSNPKIVQLLAGVADQTKDGLISYQEFLAFESVLCAPDSMFIVAFQLFDKSGNGEVTFENVKEIFGQTIIHHHIPFNWDCEFIRLHFGHNRKKHLNYTEFTQFLQELQLEHARQAFALKDKSKSGMISGLDFSDIMVTIRSHMLTPFVEENLVSAAGGSISHQVSFSYFNAFNSLLNNMELVRKIYSTLAGTRKDVEVTKEEFAQSAIRYGQVTPLEIDILYQLADLYNASGRLTLADIERIAPLAEGALPYNLAELQRQQSPGLGRENLYFQGGLKPAGSEPTPKSRIADLPPANPDHIGGYRLATATFAGIENKFGLYLPKFKSPSVAVVQPKAAVAATQ
notes: human aralar N-terminal domain, residues 2-317; TEV protease cleavage site that links the two domains in place of the carrier domain; human aralar C-terminal domain, residues 611-678; also called aralar fusion; source: gene codon-optimized for expression in L. lactis; expressed, purified
Take B5: in series [1], the “stoichiometry N” value came out at 2.
